The results in this text go back to the supplement of paper PMC12042874.

± gives the uncertainty stated by the source.

A short description of this data set: amyloid nucleation score (Sup35N fusion, yeast selection) (log enrichment); library NNK1; higher = more nucleation; inactive = no reads after selection. Put shortly:
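Nucleation score: DiMSum log enrichment of output over input reads, centred on the mode score of non-aggregating sequences. Only sequences with at least 100 input reads were kept. Reads came from Illumina sequencing of plasmid inserts before and after 7 days of growth at 30°C without adenine and uracil, in psi-negative yeast expressing Sup35N fused to peptides of 20 random codons after 24 hours of induction with 100 μM copper sulfate.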
With LPGFYDRKICKSLSMIYRLS, the amyloid nucleation score was -0.405 ± 1.7. Substance LPGTSRRASRCLFACYVDMS displayed an amyloid nucleation score of 0.676 ± 0.39.

As for LPIVGFSCFEFIMIERMRLV, the amyloid nucleation score result is “inactive”. The result for LPKKDNHSSTNA reads -1.77 ± 2.4; that for LPVLSGWTNTAA, -0.73 ± 0.59. Regarding LQKVFLAVDSYW, the amyloid nucleation score is -0.347 ± 0.92. The result for LQLIGYRDNWSGVMFYLERG reads 0.838 ± 0.55; that for LQLTYPPLVVPSSRWCLLLS, -0.099 ± 0.97. For LQLYQVFSVHYEC, the amyloid nucleation score was 3.08 ± 0.11. As to LQNVGRENEESTCERRSKVY, the amyloid nucleation score entry is “inactive”.

The substance LQTGRYDWKVDPINSSMESV registered an amyloid nucleation score of 0.26 ± 0.7. Next, LQYGNWPGGVFVWWFIKMHH: -0.02 ± 0.71; LRCVLQSRRWEIGMLRLTER: -0.267 ± 0.35. The result for LRGIDRTALGSGSERYLCLL reads -0.253 ± 0.59; that for LRHRKSRNRVSCHCLGHGCW, 1.54 ± 0.84.

For the substance LRIDFGDATSVGRRRFMCTV, the amyloid nucleation score is -0.199 ± 1.5.

Take LRKGTVRLSSFEKWYMVRTG: the amyloid nucleation score is -0.701 ± 0.7. With LRKMLMDE, the amyloid nucleation score result is “inactive”. The result for LRLENAQLSFTFEYWILYG reads -0.475 ± 1.7; that for LRLIV, 0.113 ± 0.89. Next, LRLNDSSLRIPEAA: -0.107 ± 0.44. Next, LRMNLSRKPANFCFKCIIGK: -0.348 ± 0.5. Turning to LRNSHNVGEQFCISVRDSLG, the amyloid nucleation score is 0.007 ± 0.69. Next, LRNVYLSGKFVYRGELNCET: 0.95 ± 0.31; LRRGMQHAFADSENFVGSHV: -0.168 ± 1.3. The result for LRRPVRSTLNGMRMSQHTRR reads -0.164 ± 0.66; that for LRSFW, “inactive”; that for LRSKCECNTRGSCAWWCSDA, 1.1 ± 0.9. As to LRSMCSCHVRPIYPFCGHY, the amyloid nucleation score worked out at 0.242 ± 0.81. The result for LRTKSLWSF reads -0.515 ± 0.59. The result for LRVNGEKIKASLPFEGD reads 0.197 ± 0.51; that for LRVVYPGPSYAGASDLSSMR, -0.926 ± 0.63; that for LSCDVQWLCLESNCE, 3.96 ± 0.07. With LSDWYNLRRWRTVTWAQQLH, the amyloid nucleation score was -0.4 ± 1.3. The substance LSEDVHRTVVRYWMKSRR yielded an amyloid nucleation score of 1.74 ± 0.31. Next, LSEWNPSLVCMERTLHCS: 0.493 ± 0.25; LSFAKGSVFITGDCISGTVD: -1.49 ± 1.7. Next, LSFETRRWMYYIS: 0.446 ± 0.24; LSFIACPYIVRVYAFNPRTG: 6.16 ± 0.071. Next, LSFMMRGSIHWPLTTLRACS: 1.05 ± 0.6; LSGDIFRNHMNRFYL: -0.071 ± 0.27; LSGFKMFIGNYITVV: -0.779 ± 0.78. For the substance LSHGSIQMVYPELR, the amyloid nucleation score is -0.829 ± 1.6. Next, LSKKFWRFVWARLSEELIER: 0.811 ± 0.51; LSLDRNVATHKGSYPEWDNF: 0.752 ± 0.23. The result for LSLILFVCRIYTYSCSHRAL reads 0 ± 0.36; that for LSMKNQDTCTFTCVLSHLSL, 1.9 ± 0.23. Next, LSMPGTTCIFYYRLFLVLGE: -0.043 ± 0.31; LSPWSKTSIYCNLLPCIVSR: 0.571 ± 0.3; LSRHGKVKCKLLATGGLT: 0.184 ± 0.45. Regarding LSSIATRKHELLNFPV, the amyloid nucleation score worked out at 0.294 ± 0.63. The result for LSSTSV reads 0.425 ± 0.44; that for LSTLQQLGKLLNTVWDDLAQ, 0.048 ± 0.9. Next, LSVIIII: 4.96 ± 0.051.

In turn, LSWVQSLKACNI had an amyloid nucleation score of 1.45 ± 0.4.

Regarding LSWYPCWVARSTMALDGYGV, the amyloid nucleation score is -0.776 ± 0.55. Next, LTKASHVRLNNVGV: 0.034 ± 0.6. The result for LTLVNASSSRYEMSLFFQSI reads 2.53 ± 0.12. The result for LTNATFQLWLLCCDGPLRDM reads 5.87 ± 0.062; that for LTQLYLVTSSTWVNYSYLKW, 0.742 ± 0.58. Take LTSCLLPFDPLSNDNYKGVW: the amyloid nucleation score amounted to 1.78 ± 0.65.

For the substance LTVIVFIMEATIDYYGGRCG, the amyloid nucleation score stood at 0.959 ± 0.92.

Turning to LTVMMLGFGHVQCMS, the amyloid nucleation score was -0.003 ± 0.26.

Regarding LTYLNMALVCRFFYVFRHDW, the amyloid nucleation score came out at 0.799 ± 0.57. Next, LVCFHQRVKIVRYCRTGTLT: -0.095 ± 0.61; LVCSIMWNGVRHAPVRCKPT: -0.382 ± 0.47; LVCVSQVYGALDTCGPVSMM: 0.379 ± 0.54. Next, LVELNIGTTLCWQMRLRNVG: -0.037 ± 1.7.

Turning to LVFANSHGFCGKSSLLRVGD, the amyloid nucleation score entry was “inactive”.

Turning to LVFFCNM, the amyloid nucleation score was determined as 7.824 ± 0.06.

On to LVFSRFLGSVLVNEPSEATR, for which the amyloid nucleation score amounted to 0.203 ± 1.5. The result for LVFTMWLPKRDACPDLTTMM reads 0.34 ± 0.47.

Consider LVGSKSGVTRQRMALRWGGF, for which the amyloid nucleation score is -0.285 ± 1.4.

The substance LVKWGCQLSVEFVRFNTGFQ registered an amyloid nucleation score of 1.74 ± 0.094.

For LVLQRDIGSACVDCHGVGKA, the amyloid nucleation score turned out to be 1.17 ± 0.52.

For LVMFMNMSLRYNRGLSLVKR, the amyloid nucleation score was -0.252 ± 0.26. Next, LVNCVVGFLTLVNFWSIHQL: 0.206 ± 0.79; LVPSTFHTF: 0.149 ± 0.77. The result for LVSMSYSVREDDFISLLWGV reads “inactive”; that for LVTGSCNQWHGKW, -0.062 ± 0.39. As for LVTRLALSFAVNFLLGDSCV, the amyloid nucleation score worked out at 0.595 ± 0.48. In turn, LVWLY displayed an amyloid nucleation score of 0.493 ± 0.68. The result for LVWSGLHVGGHSWVGFTGVV reads 0.241 ± 0.61.

For the substance LWEIRILLL, the amyloid nucleation score is -0.994 ± 0.68. For the substance LWFQLLMLEFSRNKPIQTVG, the amyloid nucleation score was -0.138 ± 0.64.

Consider LWKLLAAGVGNMCDD, for which the amyloid nucleation score is -0.503 ± 0.38. In turn, LWNCKIVVWSFIGSVCTTGK displayed an amyloid nucleation score of 2.29 ± 0.19. The result for LWNGIFELAYLTGVYEFRYG reads 2.07 ± 0.26. Next, LWPEPVSRSIHSRSH: 0.976 ± 0.55; LWSVVYIVIYHLMSNADWST: -0.252 ± 0.41; LWVFGCCIVRMIR: 0.047 ± 0.74. Next, LWYKIGFLIWSRTGTLYQGI: 0.273 ± 0.3; LWYVAPHVTRSNFEVQGGCG: -0.249 ± 0.34.

In the case of LYACNFFVFISRPAGMDSAS, the amyloid nucleation score stood at 5.29 ± 0.079. The result for LYAKLQLLRNKYRVYLFVTS reads -0.741 ± 0.55; that for LYEVNWVSYRMFAVGVRYVL, -0.397 ± 0.36. The result for LYFMSISTMAIRSCGVGLHQ reads 0.235 ± 0.37.

In the case of LYFRIGYSMLIATDVGFGDL, the amyloid nucleation score is -2.74 ± 1.8. The result for LYGGNSRFRLSSYRYGMFWN reads “inactive”. LYGYSI yielded an amyloid nucleation score of 0.778 ± 0.41.

In turn, LYIYTKFRFVMYVSWCVSDS came in with an amyloid nucleation score of 0.012 ± 0.62. The result for LYMPSGNIFG reads 0.973 ± 0.8; that for LYNPFHIRESMRSRPLVRWV, -0.1 ± 0.32. Next, LYNRIANFGPGYINLWVI: 6.375 ± 0.061; LYNVKTGFVRQTDVG: 0.106 ± 0.91. Next, LYPKSFYTKYYEWYTSGLIF: 0.236 ± 0.57. Turning to LYRVSLLGRGGNSMMCDMWL, the amyloid nucleation score result is “inactive”. The result for LYSDPKVCHN reads 4.74 ± 0.065. For LYSLGTSHEIPCLM, the amyloid nucleation score was 0.442 ± 0.42.

On to LYTHNSELNIKGSKVVHIEW, for which the amyloid nucleation score was 0.489 ± 0.4. Next, LYTITLLIALALTTEQAPPR: 1.67 ± 0.28; LYTKFFEAMWQVWRFERTQR: 2.53 ± 0.21. The result for LYYDSLYCHSFLWYGSLVLS reads -0.06 ± 0.38; that for MACVVRVLGVMVHLKMLVGL, -1.11 ± 1; that for MAFMLWLDYW, 0.395 ± 0.32. MAFYSTSLSFSEGGIRCSIY: the amyloid nucleation score stood at 5.14 ± 0.08. With MAGSSMTISVLYSWIP, the amyloid nucleation score entry was “inactive”. The result for MAVFSIDRVVPVVTGGCIAE reads 0.035 ± 0.46; that for MAVYFLGFIA, 0.604 ± 0.59. Next, MCFLLSYLRWLDYYSYVVVC: 0.962 ± 0.42; MCGRSGTFSAILRDREGLNI: 0.219 ± 0.65; MCILTRRFGLMGWNTHYKS: -0.525 ± 0.94. The result for MCRVHFRNVTFCGALARSVL reads -0.751 ± 0.43. As for MCVMVGLLYGVLLSSFTNNA, the amyloid nucleation score came to 0.684 ± 0.23.

As to MDGALSVEFSWGLLSKTRLC, the amyloid nucleation score was -0.122 ± 0.74.

As for MDGFERWGSYVTWSQLVMIR, the amyloid nucleation score was -0.837 ± 0.98. The substance MDKEESRCVELSLMSVSVMG came in with an amyloid nucleation score of 1.35 ± 0.79. For MDKSTMVGIKCTMRVSRQMG, the amyloid nucleation score was -0.158 ± 0.56. Next, MDLHTACVYSKVGMTLDQPS: 0.343 ± 0.39.

Turning to MDLKTY, the amyloid nucleation score was -0.696 ± 0.46.

Consider MDRALQRSWRLGLRPGEGGS, for which the amyloid nucleation score is -0.455 ± 0.62. Next, MDVPFLRKN: 0.154 ± 0.66. In turn, MDWLEYHMSFCSHV returned an amyloid nucleation score of 0.07 ± 0.26.

Consider MENAGTSVIPRRYIWTPKPV, for which the amyloid nucleation score turned out to be 0.923 ± 0.76. The result for MEPYYVRNSCFCRIRDRNF reads -0.21 ± 0.33.

Consider MERYCN, for which the amyloid nucleation score is -0.148 ± 0.23.

MFARLNF gave an amyloid nucleation score of 3.98 ± 0.062.

Regarding MFFVFSYSRS, the amyloid nucleation score was determined as 1.52 ± 0.28.
